What was measured:
Experiment in all cases: cell-based or functional assay
[1] = target: Meprin from R & D Systems
[2] = target: Human ADAM10 from R & D Systems (human) (UniProt O14672)
MMP 12 = MMP 12 (UniProt P39900)
[3] = target: ADAM17 from R & D Systems (UniProt P78536)
MMP 14 = MMP 14 (UniProt P50281)
MMP 9 = MMP 9 (UniProt P14780)
MMP 3 = MMP 3 (UniProt P08254)
ADAM9 from R & D Systems = ADAM9 from R & D Systems (UniProt Q13443)
MMP 2 = MMP 2 (UniProt P08253)
MMP 2, sequence (P08253 30-660 limits assumed): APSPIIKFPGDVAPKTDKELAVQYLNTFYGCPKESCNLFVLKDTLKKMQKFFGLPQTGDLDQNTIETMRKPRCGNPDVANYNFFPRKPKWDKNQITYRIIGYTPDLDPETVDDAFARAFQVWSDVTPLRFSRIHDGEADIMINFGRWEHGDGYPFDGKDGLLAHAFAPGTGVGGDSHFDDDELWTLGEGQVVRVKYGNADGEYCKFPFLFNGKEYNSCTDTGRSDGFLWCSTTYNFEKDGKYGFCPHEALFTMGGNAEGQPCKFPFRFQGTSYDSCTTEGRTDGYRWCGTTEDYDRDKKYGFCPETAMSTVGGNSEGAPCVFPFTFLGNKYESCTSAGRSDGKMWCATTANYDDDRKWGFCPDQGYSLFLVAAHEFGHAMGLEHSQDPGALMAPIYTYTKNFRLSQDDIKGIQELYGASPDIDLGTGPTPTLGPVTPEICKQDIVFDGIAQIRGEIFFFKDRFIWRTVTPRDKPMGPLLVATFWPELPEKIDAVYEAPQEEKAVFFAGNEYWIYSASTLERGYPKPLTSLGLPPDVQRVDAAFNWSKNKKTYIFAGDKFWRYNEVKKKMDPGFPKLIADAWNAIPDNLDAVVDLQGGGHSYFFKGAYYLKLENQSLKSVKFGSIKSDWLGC

MMP 12, sequence (P39900 17-470 limits assumed): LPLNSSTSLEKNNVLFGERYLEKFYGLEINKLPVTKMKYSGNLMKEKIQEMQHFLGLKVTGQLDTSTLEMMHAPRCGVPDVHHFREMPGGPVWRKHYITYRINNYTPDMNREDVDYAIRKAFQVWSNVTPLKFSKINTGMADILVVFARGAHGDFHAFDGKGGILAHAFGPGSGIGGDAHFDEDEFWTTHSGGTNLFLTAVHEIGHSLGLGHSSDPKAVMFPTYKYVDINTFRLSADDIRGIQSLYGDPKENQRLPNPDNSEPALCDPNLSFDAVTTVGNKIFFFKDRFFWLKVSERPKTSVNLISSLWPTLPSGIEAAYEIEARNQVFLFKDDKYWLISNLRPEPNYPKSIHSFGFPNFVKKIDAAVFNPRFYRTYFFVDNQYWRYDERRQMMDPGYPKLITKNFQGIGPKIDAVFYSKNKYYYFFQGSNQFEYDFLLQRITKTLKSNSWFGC
ADAM9 from R & D Systems, sequence (Q13443 29-697 limits assumed): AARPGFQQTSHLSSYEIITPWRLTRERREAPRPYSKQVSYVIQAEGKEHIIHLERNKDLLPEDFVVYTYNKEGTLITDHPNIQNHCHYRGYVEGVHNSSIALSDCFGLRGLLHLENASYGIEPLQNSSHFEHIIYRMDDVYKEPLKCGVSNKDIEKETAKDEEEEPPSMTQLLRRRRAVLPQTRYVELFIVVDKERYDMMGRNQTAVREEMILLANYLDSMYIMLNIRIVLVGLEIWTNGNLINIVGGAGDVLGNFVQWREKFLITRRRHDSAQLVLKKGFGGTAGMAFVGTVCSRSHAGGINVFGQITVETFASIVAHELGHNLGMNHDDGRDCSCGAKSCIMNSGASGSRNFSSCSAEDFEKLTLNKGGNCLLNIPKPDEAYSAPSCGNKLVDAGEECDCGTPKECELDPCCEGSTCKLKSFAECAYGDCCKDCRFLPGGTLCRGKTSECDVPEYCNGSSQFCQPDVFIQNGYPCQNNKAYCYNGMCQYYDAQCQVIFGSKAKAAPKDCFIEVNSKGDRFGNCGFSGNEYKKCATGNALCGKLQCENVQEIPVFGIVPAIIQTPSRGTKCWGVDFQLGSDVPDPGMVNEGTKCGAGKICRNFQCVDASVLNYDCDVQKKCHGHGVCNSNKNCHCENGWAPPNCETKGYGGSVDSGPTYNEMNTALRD
Human ADAM10 from R & D Systems (human), sequence (O14672 214-672 limits assumed): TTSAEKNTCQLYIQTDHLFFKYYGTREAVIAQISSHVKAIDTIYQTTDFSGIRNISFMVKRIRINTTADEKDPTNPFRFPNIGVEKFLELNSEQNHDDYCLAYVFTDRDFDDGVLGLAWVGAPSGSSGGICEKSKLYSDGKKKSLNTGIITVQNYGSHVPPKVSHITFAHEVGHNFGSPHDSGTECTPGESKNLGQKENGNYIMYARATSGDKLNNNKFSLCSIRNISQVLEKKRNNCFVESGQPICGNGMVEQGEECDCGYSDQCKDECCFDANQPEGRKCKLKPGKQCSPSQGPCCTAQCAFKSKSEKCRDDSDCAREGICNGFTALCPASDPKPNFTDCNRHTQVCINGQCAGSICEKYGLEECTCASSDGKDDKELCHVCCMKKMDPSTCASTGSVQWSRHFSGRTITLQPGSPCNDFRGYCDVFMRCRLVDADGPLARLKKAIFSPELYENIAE
MMP 9, sequence (P14780 20-707 limits assumed): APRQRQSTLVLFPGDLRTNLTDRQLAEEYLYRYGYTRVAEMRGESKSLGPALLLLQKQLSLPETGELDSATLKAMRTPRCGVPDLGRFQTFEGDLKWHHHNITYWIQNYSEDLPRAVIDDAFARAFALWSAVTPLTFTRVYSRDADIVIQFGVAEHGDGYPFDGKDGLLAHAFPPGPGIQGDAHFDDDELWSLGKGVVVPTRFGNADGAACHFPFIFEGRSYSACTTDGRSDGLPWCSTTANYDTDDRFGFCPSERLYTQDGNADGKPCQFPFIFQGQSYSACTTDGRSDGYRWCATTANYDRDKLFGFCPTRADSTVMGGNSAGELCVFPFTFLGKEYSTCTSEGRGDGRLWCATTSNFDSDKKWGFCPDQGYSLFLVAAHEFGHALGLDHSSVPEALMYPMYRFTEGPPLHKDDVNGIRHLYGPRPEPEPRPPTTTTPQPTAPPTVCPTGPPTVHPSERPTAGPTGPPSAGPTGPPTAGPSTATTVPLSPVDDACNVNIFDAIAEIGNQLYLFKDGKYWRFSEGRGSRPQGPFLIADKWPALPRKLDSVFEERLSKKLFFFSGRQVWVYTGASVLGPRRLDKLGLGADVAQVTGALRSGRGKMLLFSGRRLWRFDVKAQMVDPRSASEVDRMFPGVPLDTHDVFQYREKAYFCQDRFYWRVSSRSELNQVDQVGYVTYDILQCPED
MMP 3, sequence (P08254 18-477 limits assumed): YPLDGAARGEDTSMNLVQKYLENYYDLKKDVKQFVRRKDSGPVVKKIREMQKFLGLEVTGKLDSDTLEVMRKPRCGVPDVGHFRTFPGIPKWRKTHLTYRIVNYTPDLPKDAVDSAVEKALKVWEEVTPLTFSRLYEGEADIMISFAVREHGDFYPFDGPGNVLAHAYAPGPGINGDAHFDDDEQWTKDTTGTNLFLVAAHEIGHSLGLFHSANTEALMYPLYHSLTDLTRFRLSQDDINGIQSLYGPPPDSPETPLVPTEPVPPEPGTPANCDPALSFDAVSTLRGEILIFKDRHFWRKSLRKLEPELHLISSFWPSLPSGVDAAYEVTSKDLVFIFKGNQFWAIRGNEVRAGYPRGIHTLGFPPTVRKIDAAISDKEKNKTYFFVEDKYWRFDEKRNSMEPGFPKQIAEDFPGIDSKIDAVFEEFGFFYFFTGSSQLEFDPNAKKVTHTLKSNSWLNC
ADAM17 from R & D Systems, sequence (P78536 215-671 limits assumed): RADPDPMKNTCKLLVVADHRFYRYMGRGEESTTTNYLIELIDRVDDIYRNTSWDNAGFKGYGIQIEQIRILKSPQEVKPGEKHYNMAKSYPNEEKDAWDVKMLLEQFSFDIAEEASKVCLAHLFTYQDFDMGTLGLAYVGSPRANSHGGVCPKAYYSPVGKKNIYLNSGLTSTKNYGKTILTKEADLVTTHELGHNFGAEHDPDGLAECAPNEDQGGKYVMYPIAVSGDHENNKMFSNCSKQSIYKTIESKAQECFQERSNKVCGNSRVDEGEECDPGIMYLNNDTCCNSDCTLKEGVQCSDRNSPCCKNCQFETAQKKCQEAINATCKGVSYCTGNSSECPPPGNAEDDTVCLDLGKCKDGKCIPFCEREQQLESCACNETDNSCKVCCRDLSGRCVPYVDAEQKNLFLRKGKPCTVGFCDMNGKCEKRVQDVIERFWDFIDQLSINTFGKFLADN

**Q.** How did the IC50 (nM), inhibition of meprin cleavage of the fluorescent substrate PEPDAB022 [1] turn out when “SEQ ID NO: 1 (human wild type ADAM10 prodomain peptide, amino acids 23-211 of NP_001101.1)” was run?
**A.** 185 nM

**Q.** And the IC50 (nM), inhibition of ADAM10 cleavage of the fluorescent substrate PEPDAB064 [2]?
**A.** 17 nM

**Q.** And the percent inhibition of MMP activity (PEPDAB008 substrate) (MMP 12)?
**A.** 0 % at 8 µM

**Q.** What about the percent inhibition of ADAM17 activity [3] of the same substance?
**A.** 28 % at 8 µM

**Q.** And the percent inhibition of MMP activity (PEPDAB008 substrate) (MMP 14)?
**A.** 0 % at 8 µM

**Q.** What about the percent inhibition of MMP activity (PEPDAB008 substrate) (MMP 9) of the same substance?
**A.** 0 % at 8 µM

**Q.** What about the percent inhibition of MMP activity (PEPDAB008 substrate) (MMP 3) of the same substance?
**A.** 0 % at 8 µM

**Q.** What about the percent inhibition of ADAM9 activity (ADAM9 from R & D Systems) of the same substance?
**A.** 0 % at 8 µM

**Q.** What about the percent inhibition of MMP activity (PEPDAB008 substrate) (MMP 2) of the same substance?
**A.** 0 % at 8 µM

— patent US20250207119A1
